The target in one assay is T1, FcgRIa (human, UniProt P12314 16-292).
T1 construct: extracellular domain; Soluble extracellular domain expressed in FreeStyle293 cells; also called FcγRIa; FcγRI; not shown: His tag attached to the C terminus
Nature of the assay: SPR (Biacore); KD of H240-Kn120/H240-Hl068/L73-k0 divided by KD of the sample. As to the method: (§1) Analysis of interaction between objective antibody and the FcγR was carried out using Biacore T100 (GE Healthcare), Biacore T200, Biacore A100, and Biacore 4000. HBS-EP+ (GE Healthcare) was used as the running buffer, and the measurement temperature was set to 25° C. Chips produced by immobilizing the antigen peptide by the amine coupling method to a Series S sensor Chip CM5 (GE Healthcare), chips produced by allowing preliminarily biotinylated antigen peptides to interact with and immobilize onto a Series S Sensor Chip SA (certified) (GE Healthcare), chips produced by immobilizing Protein L (ACTIGEN, BioVision) to Series S Sencor Chip CM5 (GE Healthcare), or chips produced by immobilizing Protein A/G (Thermo Scientific) to Series S Sencor Chip CM5 (GE Healthcare) were used. Antibodies of interest were captured onto these chips, and allowed to interact to each FcγR diluted with running buffer. To regenerate and repeatedly use the chip, the antibodies captured onto the chip were washed off by reacting 10 mM glycine-HCl, pH 1.5.
(In SPR one partner is held on a chip, and binding of the other changes the refractive index at the surface.)

In a further assay the target is T2, FcgRIIaR (human, UniProt P12318 34-217).
T2 construct: extracellular domain; Allotype R131; also called FcγRIIa R; FcgRIIa type R; not shown: His tag attached to the C terminus
T2 sequence (looked up): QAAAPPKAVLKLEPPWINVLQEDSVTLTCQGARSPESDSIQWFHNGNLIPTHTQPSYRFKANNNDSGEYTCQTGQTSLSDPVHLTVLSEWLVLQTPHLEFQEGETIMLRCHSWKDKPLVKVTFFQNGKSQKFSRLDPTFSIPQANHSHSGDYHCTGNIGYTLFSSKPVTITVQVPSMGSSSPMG
The description is as above. As to the method:
as §1

In another assay the target is T3, FcgRIIaH (human, UniProt P12318 34-217).
T3 construct: extracellular domain; Allotype H131; also called FcγRIIa H; FcgRIIa type H; not shown: His tag attached to the C terminus
T3 sequence (looked up): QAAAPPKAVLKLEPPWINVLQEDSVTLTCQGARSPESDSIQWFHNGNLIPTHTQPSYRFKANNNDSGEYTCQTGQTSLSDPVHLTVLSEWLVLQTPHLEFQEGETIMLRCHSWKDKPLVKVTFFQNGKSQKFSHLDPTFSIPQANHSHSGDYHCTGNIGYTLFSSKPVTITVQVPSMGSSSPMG
The description is as above. The protocol:
as §1

For another assay, the target named is T4, FcgRIIb (human, UniProt P31994 43-217).
T4 construct: extracellular domain; also called FcγRIIb; CD32B; not shown: His tag attached to the C terminus
T4 sequence (looked up): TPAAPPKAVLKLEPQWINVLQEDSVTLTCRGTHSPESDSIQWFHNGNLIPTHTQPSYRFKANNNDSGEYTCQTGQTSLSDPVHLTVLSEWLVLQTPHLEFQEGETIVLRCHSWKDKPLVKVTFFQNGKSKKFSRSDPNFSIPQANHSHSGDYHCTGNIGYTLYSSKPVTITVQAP
The description is as above. The protocol: as §1

In the next assay the target is T5, FcgRIIIaV (human, UniProt P08637 17-208).
T5 construct: extracellular domain; Allotype V158; also called FcγRIIIa V; not shown: His tag attached to the C terminus
T5 sequence (P08637 17-208 F176V limits assumed): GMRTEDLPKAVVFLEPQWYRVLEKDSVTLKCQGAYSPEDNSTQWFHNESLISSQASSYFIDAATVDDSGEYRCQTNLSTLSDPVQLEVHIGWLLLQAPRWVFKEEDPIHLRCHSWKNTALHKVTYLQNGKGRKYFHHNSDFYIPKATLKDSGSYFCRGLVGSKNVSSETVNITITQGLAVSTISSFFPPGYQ
The assay is described as above. The protocol: as §1

The target in assay [1] is T6, FcgRIIIa F (FcγRIIIa type F) extracellular domain with C-terminal His tag (human, UniProt P08637 17-208).
T6 construct: extracellular domain; also called FcγRIIIa F; 3aF; not shown: His tag attached to the C terminus
T6 sequence (P08637 17-208): as the sequence (P08637 17-208 F176V limits assumed) above, with V160F counted along it
Nature of the assay: SPR (Biacore); relative binding activity of the heterodimerized antibody with the alteration in one H chain.

T1 sequence (P12314 16-292): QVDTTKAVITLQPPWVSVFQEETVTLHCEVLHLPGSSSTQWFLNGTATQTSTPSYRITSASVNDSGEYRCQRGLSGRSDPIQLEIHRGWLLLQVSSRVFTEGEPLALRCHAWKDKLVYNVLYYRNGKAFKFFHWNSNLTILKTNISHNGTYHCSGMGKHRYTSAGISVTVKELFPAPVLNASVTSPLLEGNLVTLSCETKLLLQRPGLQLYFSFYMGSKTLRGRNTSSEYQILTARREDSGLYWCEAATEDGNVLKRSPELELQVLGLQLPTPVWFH

B1: H240-Kn149/H240-Hl068/L73-k0 (antibody, human IgG1, kappa)
heavy 1: QDQLVQSGAEVKKPGASVKVSCKASGFNIKDTYIQWVRQAPGQGLEWMGRIDPLRKQTKYREKFEGRVTITADTSTNTAYMELSSLRSEDTAVYYCVRSGREFDYWGQGTLVTVSSASTKGPSVFPLAPSSKSTSGGTAALGCLVKDYFPEPVTVSWNSGALTSGVHTFPAVLQSSGLYSLSSVVTVPSSSLGTQTYICNVNHKPSNTKVDKKVEPKSCDKTHTCPPCPAPEYYWGPMVFLFPPKPKDTLMISRTPEVTCVVVDVSDEDPEVKFNWYVDGVEVHNAKTKPREEQYNATYRVVSVLTVLHQDWLNGKEYKCKVSNKDWPAPIELTISKAKGQPREPQVCTLPPSRDELTKNQVSLWCLVKGFYPSDIAVEWESNGQPENNYKTTPPVLDSDGSFFLYSKLTVDKSRWQQGNVFSCSVMHEALHNHYTQKSLSLSP
heavy 2: QDQLVQSGAEVKKPGASVKVSCKASGFNIKDTYIQWVRQAPGQGLEWMGRIDPLRKQTKYREKFEGRVTITADTSTNTAYMELSSLRSEDTAVYYCVRSGREFDYWGQGTLVTVSSASTKGPSVFPLAPSSKSTSGGTAALGCLVKDYFPEPVTVSWNSGALTSGVHTFPAVLQSSGLYSLSSVVTVPSSSLGTQTYICNVNHKPSNTKVDKKVEPKSCDKTHTCPPCPAPELLGGPSVFLFPPKPKDTLMISRTPEVTCVVVDVSHEEPEVKFNWYVDGVEVHNAKTKPREEQYNSTYRVVSVLTVLHQDWLNGKEYKCKVSNDALPKPIEETISKAKGQPREPQVYTLPPSRCELTKNQVSLSCAVKGFYPSDIAVEWESNGQPENNYKTTPPVLDSDGSFFLVSKLTVDKSRWQQGNVFSCSVMHEALHNHYTQKSLSLSP
light: DIQMTQSPSSLSASVGDRVTITCRASQDIHKYIAWYQQKPGQAPRLLIQYTSTLQPGVPSRFSGSGSGTDYTFTISSLQPEDIATYYCLQYEQLRTFGGGTKVEIKRTVAAPSVFIFPPSDEQLKSGTASVVCLLNNFYPREAKVQWKVDNALQSGNSQESVTEQDSKDSTYSLSSTLTLSKADYEKHKVYACEVTHQGLSSPVTKSFNRGEC
notes: Heterodimerized anti-epiregulin IgG1 antibody; L328W and K334L in H240-Kn120
For the molecule B1, the “relative KD” value with FcgRIa was found to be 0.4; with FcgRIIaR, 1.1; in the assay with FcgRIIaH, 1.6; with FcgRIIb it was 1; with FcgRIIIaV, 1.1.

B2: GpH7-A5/GpH7-B3 variant (H268A)/GpL16-k0 (antibody, human IgG1, kappa)
heavy 1: not shown
heavy 2: not shown
light: DIVMTQSPLSLPVTPGEPASISCQASESLVHSNRNTYLHWYLQKPGQSPQLLIYKVSNRFSGVPDRFSGSGSGTDFTLKISRVEAEDVGVYYCSQNTHVPPTFGQGTKVEIERTVAAPSVFIFPPSDEQLKSGTASVVCLLNNFYPREAKVQWKVDNALQSGNSQESVTEQDSKDSTYSLSSTLTLSKADYEKHKVYACEVTHQGLSSPVTKSFNRGEC
notes: also called He Ab H268_02A
B2: the He/Con_3aF in assay [1] is 121 % of GpH7-A5/GpH7-B3/GpL16-k0 (= 100).

B3: GpH7-A5/GpH7-B3 variant (K326I)/GpL16-k0 (antibody, human IgG1, kappa)
heavy 1: not shown
heavy 2: not shown
light: DIVMTQSPLSLPVTPGEPASISCQASESLVHSNRNTYLHWYLQKPGQSPQLLIYKVSNRFSGVPDRFSGSGSGTDFTLKISRVEAEDVGVYYCSQNTHVPPTFGQGTKVEIERTVAAPSVFIFPPSDEQLKSGTASVVCLLNNFYPREAKVQWKVDNALQSGNSQESVTEQDSKDSTYSLSSTLTLSKADYEKHKVYACEVTHQGLSSPVTKSFNRGEC
notes: also called He Ab K326_07I
Regarding B3, the He/Con_3aF in assay [1] is 153 % of GpH7-A5/GpH7-B3/GpL16-k0 (= 100).

B4: GpH7-A5/GpH7-B3 variant (H268E)/GpL16-k0 (antibody, human IgG1, kappa)
heavy 1: not shown
heavy 2: not shown
light: DIVMTQSPLSLPVTPGEPASISCQASESLVHSNRNTYLHWYLQKPGQSPQLLIYKVSNRFSGVPDRFSGSGSGTDFTLKISRVEAEDVGVYYCSQNTHVPPTFGQGTKVEIERTVAAPSVFIFPPSDEQLKSGTASVVCLLNNFYPREAKVQWKVDNALQSGNSQESVTEQDSKDSTYSLSSTLTLSKADYEKHKVYACEVTHQGLSSPVTKSFNRGEC
notes: also called He Ab H268_10E
Regarding B4, the He/Con_3aF in assay [1] was 184 % of GpH7-A5/GpH7-B3/GpL16-k0 (= 100).

B5: GpH7-A5/GpH7-B3 variant (K334I)/GpL16-k0 (antibody, human IgG1, kappa)
heavy 1: not shown
heavy 2: not shown
light: DIVMTQSPLSLPVTPGEPASISCQASESLVHSNRNTYLHWYLQKPGQSPQLLIYKVSNRFSGVPDRFSGSGSGTDFTLKISRVEAEDVGVYYCSQNTHVPPTFGQGTKVEIERTVAAPSVFIFPPSDEQLKSGTASVVCLLNNFYPREAKVQWKVDNALQSGNSQESVTEQDSKDSTYSLSSTLTLSKADYEKHKVYACEVTHQGLSSPVTKSFNRGEC
notes: also called He Ab K334_07I
Consider B5, for which the He/Con_3aF in assay [1] was 156 % of GpH7-A5/GpH7-B3/GpL16-k0 (= 100).

B6: GpH7-A5/GpH7-B3 variant (K326D)/GpL16-k0 (antibody, human IgG1, kappa)
heavy 1: not shown
heavy 2: not shown
light: DIVMTQSPLSLPVTPGEPASISCQASESLVHSNRNTYLHWYLQKPGQSPQLLIYKVSNRFSGVPDRFSGSGSGTDFTLKISRVEAEDVGVYYCSQNTHVPPTFGQGTKVEIERTVAAPSVFIFPPSDEQLKSGTASVVCLLNNFYPREAKVQWKVDNALQSGNSQESVTEQDSKDSTYSLSSTLTLSKADYEKHKVYACEVTHQGLSSPVTKSFNRGEC
notes: also called He Ab K326_09D
On to B6, for which the He/Con_3aF in assay [1] was 148 % of GpH7-A5/GpH7-B3/GpL16-k0 (= 100).

B7: GpH7-A5/GpH7-B3 variant (K326T)/GpL16-k0 (antibody, human IgG1, kappa)
heavy 1: not shown
heavy 2: not shown
light: DIVMTQSPLSLPVTPGEPASISCQASESLVHSNRNTYLHWYLQKPGQSPQLLIYKVSNRFSGVPDRFSGSGSGTDFTLKISRVEAEDVGVYYCSQNTHVPPTFGQGTKVEIERTVAAPSVFIFPPSDEQLKSGTASVVCLLNNFYPREAKVQWKVDNALQSGNSQESVTEQDSKDSTYSLSSTLTLSKADYEKHKVYACEVTHQGLSSPVTKSFNRGEC
notes: also called He Ab K326_14T
Turning to B7, in assay [1], the He/Con_3aF is 140 % of GpH7-A5/GpH7-B3/GpL16-k0 (= 100).

B8: GpH7-A5/GpH7-B3 variant (K334E)/GpL16-k0 (antibody, human IgG1, kappa)
heavy 1: not shown
heavy 2: not shown
light: DIVMTQSPLSLPVTPGEPASISCQASESLVHSNRNTYLHWYLQKPGQSPQLLIYKVSNRFSGVPDRFSGSGSGTDFTLKISRVEAEDVGVYYCSQNTHVPPTFGQGTKVEIERTVAAPSVFIFPPSDEQLKSGTASVVCLLNNFYPREAKVQWKVDNALQSGNSQESVTEQDSKDSTYSLSSTLTLSKADYEKHKVYACEVTHQGLSSPVTKSFNRGEC
notes: also called He Ab K334_10E
As for B8, the He/Con_3aF in assay [1] is 186 % of GpH7-A5/GpH7-B3/GpL16-k0 (= 100).

B9: GpH7-A5/GpH7-B3 variant (K334D)/GpL16-k0 (antibody, human IgG1, kappa)
heavy 1: not shown
heavy 2: not shown
light: DIVMTQSPLSLPVTPGEPASISCQASESLVHSNRNTYLHWYLQKPGQSPQLLIYKVSNRFSGVPDRFSGSGSGTDFTLKISRVEAEDVGVYYCSQNTHVPPTFGQGTKVEIERTVAAPSVFIFPPSDEQLKSGTASVVCLLNNFYPREAKVQWKVDNALQSGNSQESVTEQDSKDSTYSLSSTLTLSKADYEKHKVYACEVTHQGLSSPVTKSFNRGEC
notes: also called He Ab K334_09D
On to B9, for which the He/Con_3aF in assay [1] was 164 % of GpH7-A5/GpH7-B3/GpL16-k0 (= 100).

B10: GpH7-A5/GpH7-B3-15-02A/GpL16-k0 (antibody, human IgG1, kappa)
heavy 1: not shown
heavy 2: not shown
light: DIVMTQSPLSLPVTPGEPASISCQASESLVHSNRNTYLHWYLQKPGQSPQLLIYKVSNRFSGVPDRFSGSGSGTDFTLKISRVEAEDVGVYYCSQNTHVPPTFGQGTKVEIERTVAAPSVFIFPPSDEQLKSGTASVVCLLNNFYPREAKVQWKVDNALQSGNSQESVTEQDSKDSTYSLSSTLTLSKADYEKHKVYACEVTHQGLSSPVTKSFNRGEC
notes: also called GpH7-A5/GpH7-B3 variant (S298A)/GpL16-k0; He Ab S298_02A
For B10, the He/Con_3aF in assay [1] is 151 % of GpH7-A5/GpH7-B3/GpL16-k0 (= 100).

The values above are taken from US20150344570A1 (published 2015).
